Where “and” joins values, the source holds several entries; their conditions need not be identical. Equal entries are not always repeated.
B1: Granulin-3 (GRN-3) (natural protein, UniProt P28799 206-261, looked up)
chain: VMCPDARSRCPDGSTCCELPSGKWGCCPMPNATCCSDHLHCCPQDTVCDLIQSKCL
B2: Granulin-5 (GRN-5) (natural protein, UniProt P28799 364-417, looked up)
chain: VPCDNVSSCPSSDTCCQLTSGEWGCCPIPEAVCCSDHQHCCPQGYTCVAEGQCQ

Experiments:
[1] = target: the molecule itself; test: PAGE under denaturing, non-reducing conditions
[2] = target: the molecule itself; test: non-reducing PAGE

Protein	stoichiometry N [1]	stoichiometry N [2]	binding result [2]
B1	≤ 4	2 and 3	
B2			binds
